These results are taken from the supplement of paper PMC12636428.

In the data set the test system is Saccharomyces cerevisiae. Description: transcriptional activation domain activity (GFP:mCherry ratio, weighted mean of sorted bins, harmonized to initial dataset scale) (arbitrary fluorescence ratio units); higher = stronger transcriptional activation. As to conditions: beta-estradiol 1 µM; induction time 4 h. How it is done:
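53-aa protein tiles (fungal proteins plus yeast TF control tiles) fused C-terminally to a DBD-estrogen-binding domain-mCherry synthetic TF, integrated in S. cerevisiae (URA3 locus) with a GFP reporter. Cells were induced with 1 uM beta-estradiol for 4 h at 30 C, FACS-sorted into 8 bins by GFP:mCherry ratio and barcodes sequenced. Activity is the read-weighted mean bin fluorescence (GFP:mCherry), averaged over barcodes (median 12); tiles under 50 reads were discarded. New active-learning values were harmonized by linear fit onto the scale of the initial (Hummel et al.) dataset. The assay saturates at low and high signal.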

For the sequence “RPVLDVALAAGEEDLSSKPRCQRCRKSKKGCDRQRPCGRCRDAGIGIEGCISE”, the “transcriptional activation domain activity” value amounted to 31500. The value for “NIIALFLVTNQLTTCSVLPLCMGLFKVFDGFVSEGAVLFGSIFAFFSVLVHGY” was 61300; that for “QGEEGEKKAGGRGRGGGRKKAEKHMAEGSGDEISPKKSGKGGEAGGSKAAAGA” was 33700. The value for “ADMILGFFFKNFVWTFILFWYQLFCQFNGTMVFDYSLVTLYNLVFTSLPIAFL” was 65600. Under “RALLLLSYCAFLKTTGVTDGEIVQLISTSAELKFRPWSLVRGAECVNRCITAL” stands 47400. Turning to “RPSLGCILFILIRYVSIIVMVVSNYGVLSTSFTEKVCERYFMIAPVFKVIQTM”, the “transcriptional activation domain activity” value came out at 50600. Under “PSRLTSPSSRRLPSTPGPHPRKSTPRSKPPPSSPARRRSSSTTPTGRPSQPSS” stands 24900. As for “ENEDDAFGALNYNSLDATTMSAFDNNVDPFNILKSSPAQDQQFIKPSMMLSDN”, the “transcriptional activation domain activity” value worked out at 77200. The value for “ATWWHVFGTRVFKPVPTYVGEFQTWLQAFIHLSWDWRLSTHMWFRYNFHMWTI” was 68900; that for “QAAAPAEKPATAAAGEAEKDGAAARGASTRGRGRGRGRGGRGGATAARRPRAD” was 46200.

Regarding “YTRQLALGCVTRLLWTYLFRCTESTVIAFKKLDGIIKTLFPPFRRTIYPSETP”, the “transcriptional activation domain activity” value turned out to be 61400. The value for “CFSLCFSLCFPFAFPLLFPFFPLLFPLLFPLLSLCFSLCFSLLPFPLELPFLF” was 37100.

For “ERSLGGGSLYTGKAVHTDPEMSEVHATEYTRGRLRKFLCLAFGEVASVLRLDK”, the “transcriptional activation domain activity” value worked out at 16600. In the case of “WHVAYPLVATGLCVAPQEFFLKHWLAFLREKGTRSFVLNGMLRLLWTYLYRCQ”, the “transcriptional activation domain activity” value is 45800. Take “ESEDEGRDTTHDSDNEGDGHDANHGSENEGEGHDTTHDSKIEGAGRDAIRGSH”: the “transcriptional activation domain activity” value is 8090.

“MVTIWDFFLGGWGWAFYIICLFFFLSFYFLSFFFFSLLSSFFFFGYSPSAVWV”: the “transcriptional activation domain activity” value was determined as 29600. In the case of “MFYNFFFFIIIYLCFFARMFLVVSRIVMLLAFLYSCLIPLLCGLVFFCIRFKS”, the “transcriptional activation domain activity” value is 67300. Turning to “GGAAKPAFGAAPSGGLFGSTANTTANTGGFGGGFGSGTTAASTSSPFGGGAAS”, the “transcriptional activation domain activity” value was found to be 27700.

Consider “ESEEEVAAGSSANGKKQSGTRDSSKRSKKSDSKSEAKRSDKAEGAAEKTAPES”, for which the “transcriptional activation domain activity” value turned out to be 18500. On to “MHTSRAAWIHSKPADKAEAVAPHPHIAESGVGHSSHVGTHPKLSGDPNSPWRE”, for which the “transcriptional activation domain activity” value is 45900. Under “PSLPPSHPVPSLSLFCFFVFFFAFFFFFFMPIFYYNLLISHFPFCRCWRCLHM” stands 26200; under “RAVDNSKWWLLGDSFETDVLTFVSLFQFVNAALIFNYGYLFRDRWYRNYLLLV”, 47900; under “RVFTKIRRLLIRLKKHDIHAVCAALLTYIFWPTAFLRAYCLDSIYYDPASRDK”, 54100.

“KWKEKRSRNDEADGERGAERKPRKRSRSPRRRKEPEAAPERKQQEKPASAAPA”: the “transcriptional activation domain activity” value came out at 45600.

On to “RCQAVTVSDEVYSKLRCSSGHSGSGLLFMLIWIRIWKTLVIAYSGFSWREYLY”, for which the “transcriptional activation domain activity” value was found to be 88100. The value for “GEDTAQEGGEEGATSADEEETASTTRSGRKPKKIKTAVPIKRKRRSGRGGIAA” was 31200; that for “SSSKKRKAVEVEEEEEEEEEEEEPVEEPEVEKEKEIVAAPVAKKAKVTAAATS” was 29300; that for “MFTLPSYSLFLSVHSFLIYPLPSCSFFFRISSPSIFTLSSCLSFPPVCPSLLF” was 71700. For “ELGFVEIVQVSPRFGILLLCMTLSMISIIVDLLSVTPVIPIGVINPFWKFAFV”, the “transcriptional activation domain activity” value was determined as 39800. In the case of “DFLLSLHGIRTVYLFMFVINSFLHPLRTLIHLWCLIFISVYQHRLFFFFFFFF”, the “transcriptional activation domain activity” value is 61200. Under “MCGGGWAFGLFFFFLYFFFFFLHIALLLPPLETVYFVLFFCMISRGLCFIFFF” stands 65400; under “NMGEQQKFTSPQHIVHKAKFLSNAADSEYSILSNIIYQDTLSNKIPIDILYSN”, 76900; under “PVALLSLCFNLCFQTCMHIVSLDLHYHFPNLSLGRSLNILRAFSFFVMIFFIS”, 88100. Under “MMSMFWGWHGQRNGVFSGVLGFGILLVTWFFFFFKFSPHILLIISVYGHFGFF” stands 81500. Consider “FLKIYLLNPLHMTRFTDLLHQGFILNRVFQPYESHLQYLLQWMCDYNLYGCAY”, for which the “transcriptional activation domain activity” value amounted to 39200. As to “RFFIRVLSNLKIDRHNSMYCTLGRPITILNLILRGWYVVRKFIILLFSIVLLF”, the “transcriptional activation domain activity” value worked out at 54100.

As to “MTLLFMWLIVRYILCYVSYYRRYAHRVGTQLPPTYPSFIPKYGTALSYLLAPA”, the “transcriptional activation domain activity” value was 58700. Under “ADASKWWLLGDSFEADVLTFVSLFQFVNSALIFNYGYIFRQAWYRNYLLVSVW” stands 56700; under “NILRPSLGCILFILIRYVSIIVMVVSNYGVLATSFTVEVCNRYYLVAPVFKVL”, 46800. For “MCVLFGNFFFFLLFSFCFYLFFFLSSFLAPLPAFFLLFCLLMGRKIGVGIIPL”, the “transcriptional activation domain activity” value was 40800. For the sequence “LLLPFVVRRFGCWVCGFYLVLLFFIFPLLLYVVLSSCFSILFTSPFIFYFSSF”, the “transcriptional activation domain activity” value was found to be 61200. For “EEREEEKEEEKEEKEQEKKKEEETRRRIRSRKRRGARRRETMRKTSQRGNRKK”, the “transcriptional activation domain activity” value turned out to be 25200.

As for “SLILVTYNTSHIACFYLLPQPHYFHLTSFLFLSIFFFLFSSLEHGSSFLAFFH”, the “transcriptional activation domain activity” value stood at 52500. For the sequence “YLPTLPDAFPFGADIGSLDAISNIPWMSWNPVMAHFSFPWFMDELEMPLELPD”, the “transcriptional activation domain activity” value came to 102000.

Regarding “MRRVTQQTGKGKIPSMYSLVVIGNGDGLVGYGEAKDDEPAAAREKATAKALRS”, the “transcriptional activation domain activity” value was determined as 46400.

As for “MLYFFFFYVYNVNIKQYLSIIMILFINGFSFYIYFLFHFLYIFFFFFLTITLS”, the “transcriptional activation domain activity” value is 88500. The value for “MRLGQLYSLFLFPSFLLSFFIMPLVSVTKYTPGVDNIYFFFFLFFFFFLFFFL” was 36900; that for “RAYGLLKRYILVPATFGYRCAQNIGWCTIPPRVQSLTIFAFVILNLILCCISY” was 58000; that for “YFYMRLISCLGLIAHSPMLWATGHNSARHELIQKMDFFPKRIGYLLSRLCVLI” was 51600. Under “FCRCLTGTGKSRMGVPVVSRLLCHFQGLLLRVMAHLFEDRPGSVRWMTIELLK” stands 28500; under “CIFFFSYYGIRILQRGVLLLFILLFYISLCDPLLFPPLFFFSSSFLGRAFFLY”, 89800.

On to “KQYCVRPNSGRIEPGKSVEVTVLLQAMKQEPPMDAKCRDKFLVQSVAVTADKE”, for which the “transcriptional activation domain activity” value was 31600. Take “DKSSGEEGSRKKRKRVSDNGEEDKELEKSKSKDRKKKGKRRDPAEDGAERPAT”: the “transcriptional activation domain activity” value is 41400. Consider “RHLAEAGLGIAAAGAAKELYDHRRRSRSRSSDSSRSRSRSQSHTGRHVAAAAL”, for which the “transcriptional activation domain activity” value amounted to 45800.

Turning to “GHKGRHLAEAAGLALGAKKLMKHRSHSRPGRSPSPEGHHRARHLAEAGIAAAG”, the “transcriptional activation domain activity” value was 43900. As for “CPACLSVCTYYLRCLLCSAALYTMGLLAFWWRFLFWHDCILLWSLSLFPFTLS”, the “transcriptional activation domain activity” value was found to be 87400. “PYIAYPLKPCLSGPLCELYPSTSNLWAMCLHLILVCIQVPFLLSTPFWLLLPL”: the “transcriptional activation domain activity” value was determined as 74200. The value for “MLCFLYHLVSMCTLLHCLYLLPVLFLIFYASFFLLLACTWSSVRCLISLFFCL” was 57300; that for “CCLLRTLGRFLLFIIFSPSLSTSSFQTLPLTLPFYLLSIFTKKPLYPIPFLCI” was 44800. The value for “GKSKEERERDEEVIRKWSGKPTKVMLQVFDDCSLSFTRPAKLMYRSIAHFSLW” was 65100; that for “SNFASKVNTQLNLLQHSSSNSNFLDASPYDFNKIFMNNFENYDYETDEGYAED” was 63600. Under “MDASSPTSSSAKTPHNKGPRACATCARAKSRCIAGPDGAAGNCERCHRLKKPC” stands 9040; under “GSTSSSNEEKKEQSITSESKAAGGLFGSIKSNEPPTSAFGSLSTTEAKPAASP”, 32800. As to “TRSFNIMLGMVTFWGVFSLFAIAFQCGLPAPWVFIPSECPTGGYLYYPVIILN”, the “transcriptional activation domain activity” value came to 56000.

Take “LIVTALVWLFQASTEQFTFVALLMYRLKYPVRRVAWLLKFSAIQNLIPKFGFA”: the “transcriptional activation domain activity” value stood at 61200. Under “KWLCYVELMNILTLGWPLSNIHFYICKYCAGWFRKYNYLFGTGINGGAQIFVL” stands 66700; under “HLKHTFVMDVAMSIGYLMAPVLVSACAFIWYVKVDNHELSASVVFVSITLFDM”, 61800; under “DLLEDDGQPSSATQKSMKRANRKRQSQKNRIVHLLNRTRRALGVSRAALILLL”, 57500. The value for “ASSASTGKGEEEEEDGEEKVRGKGKGQGQGQSQGQGQGQGQEAQERRDDEASA” was 31700. As for “KHLEAADGVEDDHRSTVIDQGNDELLVKWASDEGIIEKKPQGRFRLILGGGAS”, the “transcriptional activation domain activity” value was 70100.

As to “TPDSLCEAVTDLVRDIWYPLMTWMEFANPASGYISLDAPLFRAVLSLFHHFFA”, the “transcriptional activation domain activity” value turned out to be 42900.
